Measurements taken from patent US20070275900.

Tests used:
Val-Pro-PI 1 = target: T1, Val-Pro-PI 1
T1 chain: VP

H-Val-Pro-NAP-TSAO = target: T2, H-Val-Pro-NAP-TSAO
T2 chain: VP

Fmoc-Val-Pro-Doxorubicin = target: T3, Fmoc-Val-Pro-Doxorubicin
T3 chain: VP

H-Gly-Pro-NAP-TSAO = target: T4, H-Gly-Pro-NAP-TSAO
T4 chain: GP

H-Val-Pro-Val-NHP-TSAO = target: T5, H-Val-Pro-Val-NHP-TSAO
T5 chain: VPV

H-Val-4HyPro-NAP-TSAO = target: T6, H-Val-4HyPro-NAP-TSAO
T6 chain: VP

[1] = target: T7, H-Val-Pro-6-Aminoquinoline
T7 chain: VP

H-Val-Phe-NAP-TSAO = target: T8, H-Val-Phe-NAP-TSAO
T8 chain: VF

H-Asp-Pro-NAP-TSAO = target: T9, H-Asp-Pro-NAP-TSAO
T9 chain: DP

H-Val-Pro-Doxorubicin = target: T10, H-Val-Pro-Doxorubicin
T10 chain: VP

[2] = target: T11, NH2-Val-HyPro(Bzl)-NAP-TSAO
T11 chain: VP

H-Lys-Pro-NAP-TSAO = target: T12, H-Lys-Pro-NAP-TSAO
T12 chain: KP

H-Val-Pro-Val-NAP-TSAO = target: T13, H-Val-Pro-Val-NAP-TSAO
T13 chain: VPV

H-Gly-3.4Hypro-NAP-TSAO = target: T14, H-Gly-3.4Hypro-NAP-TSAO
T14 chain: GP

H-Val-Leu-NAP-TSAO = target: T15, H-Val-Leu-NAP-TSAO
T15 chain: VL

H-Val-Gly-NAP-TSAO = target: T16, H-Val-Gly-NAP-TSAO
T16 chain: VG

[3] = target: T17, H-Lys-Pro-Asp-Pro-NAP-TSAO
T17 chain: KPDP

[4] = target: T18, Z-Val-Pro-Val-Pro-NAP-TSAO
T18 chain: VPVP

H-Tyr-Pro-NAP-TSAO = target: T19, H-Tyr-Pro-NAP-TSAO
T19 chain: YP

H-Val-Ala-NAP-TSAO = target: T20, H-Val-Ala-NAP-TSAO
T20 chain: VA

[5] = target: T21, H-Val-Pro-Val-Pro-NAP-TSAO
T21 chain: VPVP

H-Val-D-Pro-NAP-TSAO = target: T22, H-Val-D-Pro-NAP-TSAO
T22 chain: VP

[6] = target: T23, H-Val-Ala-Val-Pro-NAP-TSAO
T23 chain: VAVP

[7] = target: T24, Me-NH-Val-Pro-Val-NHP-TSAO
T24 chain: VPV

B1: purified CD26 (dipeptidyl-peptidase IV, EC 3.4.14.5) (protein)
chain: MKTPWKVLLGLLGAAALVTIITVPVVLLNKGTDDATADSRKTYTLTDYLKNTYRLKLYSLRWISDHEYLYKQENNILVFNAEYGNSSVFLENSTFDEFGHSINDYSISPDGQFILLEYNYVKQWRHSYTASYDIYDLNKRQLITEERIPNNTQWVTWSPVGHKLAYVWNNDIYVKIEPNLPSYRITWTGKEDIIYNGITDWVYEEEVFSAYSALWWSPNGTFLAYAQFNDTEVPLIEYSFYSDESLQYPKTVRVPYPKAGAVNPTVKFFVVNTDSLSSVTNATSIQITAPASMLIGDHYLCDVTWATQERISLQWLRRIQNYSVMDICDYDESSGRWNCLVARQHIEMSTTGWVGRFRPSEPHFTLDGNSFYKIISNEEGYRHICYFQIDKKDCTFITKGTWEVIGIEALTSDYLYYISNEYKGMPGGRNLYKIQLSDYTKVTCLSCELNPERCQYYSVSFSKEAKYYQLRCSGPGLPLYTLHSSVNDKGLRVLEDNSALDKMLQNVQMPSKKLDFIILNETKFWYQMILPPHFDKSKKYPLLLDVYAGPCSQKADTVFRLNWATYLASTENIIVASFDGRGSGYQGDKIMHAINRRLGTFEVEDQIEAARQFSKMGFVDNKRIAIWGWSYGGYVTSMVLGSGSGVFKCGIAVAPVSRWEYYDSVYTERYMGLPTPEDNLDHYRNSTVMSRAENFKQVEYLLIHGTADDNVHFQQSAQISKALVDVGVDFQAMWYTDEDHGIASSTAHQHIYTHMSHFIKQCFSLP
conversion of PI-2 to PI-1 by purified CD26 (Val-Pro-PI 1): Within 60 min, PI-2 was completely converted to PI-1 by purified CD26
Conversion %, 1 h (H-Val-Pro-NAP-TSAO): 37%
Conversion %, 4 h (H-Val-Pro-NAP-TSAO): 62%
Conversion %, 24 h (H-Val-Pro-NAP-TSAO): 61%
conversion of 50 µM CAM-405 to CAM-212 by 5.7 mUnits purified CD26, 30 min (HPLC) (H-Val-Pro-NAP-TSAO): fifty percent of the TSAO dipeptide derivative was converted to CAM-212 within 30 min
conversion of 50 µM CAM-405 to CAM-212 by 5.7 mUnits purified CD26, first 10 min (HPLC) (H-Val-Pro-NAP-TSAO): Within the first 10 min of the reaction, at least 20% of CAM-405 had been converted to CAM-212
hydrolysis of 50 µM CAM-405 by 5.7 mUnits purified CD26, 60 min (HPLC) (H-Val-Pro-NAP-TSAO): ˜67% of CAM-405 was hydrolysed after 60 min
% conversion, 1 h (Fmoc-Val-Pro-Doxorubicin): 0%
% conversion, 4 h (Fmoc-Val-Pro-Doxorubicin): 0%
% conversion, 24 h (Fmoc-Val-Pro-Doxorubicin): 0%
Conversion %, 1 h (H-Gly-Pro-NAP-TSAO): 5%
Conversion %, 4 h (H-Gly-Pro-NAP-TSAO): 20%
Conversion %, 24 h (H-Gly-Pro-NAP-TSAO): 58%
Conversion %, 1 h (H-Val-Pro-Val-NHP-TSAO): 33%
Conversion %, 4 h (H-Val-Pro-Val-NHP-TSAO): 60%
Conversion %, 1 h (H-Val-4HyPro-NAP-TSAO): 4.1%
Conversion %, 4 h (H-Val-4HyPro-NAP-TSAO): 18%
Conversion %, 24 h (H-Val-4HyPro-NAP-TSAO): 53%
% conversion, 1 h [1]: 99%
% conversion, 4 h [1]: 100%
% conversion, 24 h [1]: 100%
Conversion %, 1 h (H-Val-Phe-NAP-TSAO): 0%
Conversion %, 4 h (H-Val-Phe-NAP-TSAO): 0%
Conversion %, 24 h (H-Val-Phe-NAP-TSAO): 0%
Conversion %, 4 h (H-Asp-Pro-NAP-TSAO): 7.9%
Conversion %, 24 h (H-Asp-Pro-NAP-TSAO): 30%
% conversion, 1 h (H-Val-Pro-Doxorubicin): 78%
% conversion, 4 h (H-Val-Pro-Doxorubicin): 95%
% conversion, 24 h (H-Val-Pro-Doxorubicin): 97%
Conversion %, 4 h [2]: 0%
Conversion %, 24 h [2]: 0%
Conversion %, 4 h (H-Lys-Pro-NAP-TSAO): 85%
Conversion %, 24 h (H-Lys-Pro-NAP-TSAO): 99%
Conversion %, 4 h (H-Val-Pro-Val-NAP-TSAO): 51%
Conversion %, 24 h (H-Val-Pro-Val-NAP-TSAO): 70%
Conversion %, 4 h (H-Gly-3.4Hypro-NAP-TSAO): 0%
Conversion %, 24 h (H-Gly-3.4Hypro-NAP-TSAO): 0%
Conversion %, 1 h (H-Val-Leu-NAP-TSAO): 0%
Conversion %, 4 h (H-Val-Leu-NAP-TSAO): 0%
Conversion %, 24 h (H-Val-Leu-NAP-TSAO): 0%
Conversion %, 1 h (H-Val-Gly-NAP-TSAO): 0%
Conversion %, 4 h (H-Val-Gly-NAP-TSAO): 0%
Conversion %, 24 h (H-Val-Gly-NAP-TSAO): 0%
% conversion, 1 h, to the dipeptide intermediate (a) [3]: 88%
% conversion, 1 h, to the parent compound (b) [3]: 2.1%
% conversion, 4 h, to the dipeptide intermediate (a) [3]: 86%
% conversion, 4 h, to the parent compound (b) [3]: 6%
% conversion, 24 h, to the dipeptide intermediate (a) [3]: 74%
% conversion, 24 h, to the parent compound (b) [3]: 26%
% conversion, 1 h [4]: 0%
% conversion, 4 h [4]: 0%
% conversion, 24 h [4]: 0%
Conversion %, 1 h (H-Tyr-Pro-NAP-TSAO): 43%
Conversion %, 4 h (H-Tyr-Pro-NAP-TSAO): 56%
Conversion %, 24 h (H-Tyr-Pro-NAP-TSAO): 79%
Conversion %, 1 h (H-Val-Ala-NAP-TSAO): 0%
Conversion %, 4 h (H-Val-Ala-NAP-TSAO): 6.5%
Conversion %, 24 h (H-Val-Ala-NAP-TSAO): 35%
% conversion, 1 h [5]: 43%
% conversion, 4 h [5]: 86%
% conversion, 24 h [5]: 88%
Conversion %, 1 h (H-Val-D-Pro-NAP-TSAO): 0%
Conversion %, 4 h (H-Val-D-Pro-NAP-TSAO): 1%
Conversion %, 24 h (H-Val-D-Pro-NAP-TSAO): 2%
% conversion, 1 h [6]: 12%
% conversion, 4 h [6]: 54%
% conversion, 24 h [6]: 70%
Conversion %, 1 h [7]: 0%
Conversion %, 4 h [7]: 0%
Conversion %, 24 h [7]: 0%
